The values that follow come from paper PMC3506619 (PLoS ONE, 2012).

The labels stand for the following.
B2: refolded methionine adenosyltransferase II catalytic α2 subunit (human MAT2A) (enzyme)
chain: not shown
notes: human MAT2A ORF from lymphocyte RNA, non-tagged; all cloned ORFs carried A233V and G193S against previously reported cDNAs; Dimer by gel filtration at low concentration, dimer and tetramer at higher concentration; Runs as a double band (α2 and α2′) on SDS-PAGE; The ITC methods say only 'α2 subunit'; also called MAT α2

The target of series [1] is B2. Put plainly: SEC; equimolar refolded α2 and β (wild type, mutant or truncated) mixed 1 h at 4°C, hetero-oligomer isolated on Biogel A 1.5 m in 50 mM Tris/HCl pH 8, 10 mM MgSO4, 50 mM KCl; peak on SDS-PAGE, densitometric scanning of Coomassie-stained bands. The note with it: both partners purified. In general terms: In gel filtration, larger molecules generally elute earlier.

Series [2] concerns the molecule itself. As to the kind of experiment: SEC; analytical gel filtration on Superose 12 10/300 GL, refolded α2 50 µg injected, 20 mM Tris/HCl pH 8, 10 mM MgSO4, 150 mM KCl; detection by MAT activity and dot blot.
Series [3] deals with the molecule itself. Put plainly: SEC; analytical gel filtration on Superose 12 10/300 GL, refolded α2 at higher protein concentration (200 µg injected), 20 mM Tris/HCl pH 8, 10 mM MgSO4, 150 mM KCl; detection by MAT activity and dot blot.

B1: ΔS16 truncated β subunit of methionine adenosyltransferase II (domain or fragment, human)
chain: GSHSCRLVEEEVNIPNRRVLVTGATGLLGRAVHKEFQQNNWHAVGCGFRRARPKFEQVNLLDSNAVHHIIHDFQPHVIVHCAAERRPDVVENQPDAASQLNVDASGNLAKEAAAVGAFLIYISSDYVFDGTNPPYREEDIPAPLNLYGKTKLDGEKAVLENNLGAAVLRIPILYGEVEKLEESAVTVMFDKVQFSNKSANMDHWQQRFPTHVKDVATVCRQLAEKRMLDPSIKGTFHWSGNEQMTKYEMACAIADAFNLPSSHLRPITDSPVLGAQRPRNAQLDCSKLETLGIGQRTPFRIGIKESLWPFLIDKRWRQTVFH
Turning to B1, the “(α2+α2′)/β subunit ratio” value in series [1] is 2. As for B2, the results for the “stoichiometry N” value in series [2] and in series [3] were 2 and 4, respectively.

For orientation: stoichiometry N means a count of units in the complex or per binding partner.
